According to the supplement of paper PMC9112550, “Optimization of the antimicrobial peptide Bac7 by deep mutational scanning” (BMC Biology, 2022):

System: Escherichia coli TOP10
Assay: shrunken log2 fold change of peptide-encoding DNA abundance (4.5 h post-induction vs induction); higher = less antimicrobial activity (less host growth inhibition)
Details: time post-induction: 4.5 h; library: site-saturation at positions 5, 18, 19, 20
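Note: peptides expressed intracellularly from a pBAD plasmid library in pooled LB shake-flask culture, induced with 0.3% L-arabinose, DNA abundance read by NGS, three biological replicates, DESeq2 with apeglm shrinkage.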

| Sequence | shrunken log2 fold change |
| --- | --- |
| RRIRIRPPRLPRPRPRPISGPRP | -0.0415 |
| RRIRIRPPRLPRPRPRPISTPRP | -1.54 |
| RRIRIRPPRLPRPRPRPITLPRP | -0.237 |
| RRIRIRPPRLPRPRPRPITRPRP | 0.0378 |
| RRIRIRPPRLPRPRPRPIWTPRP | -0.0318 |
| RRIRIRPPRLPRPRPRPIYAPRP | -0.758 |
| RRIRIRPPRLPRPRPRPIYVPRP | -0.24 |
| RRIRIRPPRLPRPRPRPKAFPRP | -0.122 |
| RRIRIRPPRLPRPRPRPKDKPRP | -0.747 |
| RRIRIRPPRLPRPRPRPKDTPRP | -0.224 |
| RRIRIRPPRLPRPRPRPKGVPRP | -0.00153 |
| RRIRIRPPRLPRPRPRPKGWPRP | 0.364 |
| RRIRIRPPRLPRPRPRPKHAPRP | -0.126 |
| RRIRIRPPRLPRPRPRPKHCPRP | -0.405 |
| RRIRIRPPRLPRPRPRPKHQPRP | -0.495 |
| RRIRIRPPRLPRPRPRPKKTPRP | -0.235 |
| RRIRIRPPRLPRPRPRPKLEPRP | -0.136 |
| RRIRIRPPRLPRPRPRPKLKPRP | -0.688 |
| RRIRIRPPRLPRPRPRPKMWPRP | 1.25 |
| RRIRIRPPRLPRPRPRPKMYPRP | -0.25 |
| RRIRIRPPRLPRPRPRPKNEPRP | -0.14 |
| RRIRIRPPRLPRPRPRPKNHPRP | -0.622 |
| RRIRIRPPRLPRPRPRPKPQPRP | 0.0958 |
| RRIRIRPPRLPRPRPRPKPTPRP | 0.448 |
| RRIRIRPPRLPRPRPRPKQNPRP | -0.197 |

| Sequence | shrunken log2 fold change |
| --- | --- |
| RRIRIRPPRLPRPRPRPKSQPRP | -0.0352 |
| RRIRIRPPRLPRPRPRPKTIPRP | -0.25 |
| RRIRIRPPRLPRPRPRPKVDPRP | -0.468 |
| RRIRIRPPRLPRPRPRPKVIPRP | 0.0457 |
| RRIRIRPPRLPRPRPRPLCGPRP | -0.319 |
| RRIRIRPPRLPRPRPRPLDAPRP | -0.142 |
| RRIRIRPPRLPRPRPRPLDHPRP | -0.333 |
| RRIRIRPPRLPRPRPRPLDRPRP | 0.00847 |
| RRIRIRPPRLPRPRPRPLEMPRP | -0.373 |
| RRIRIRPPRLPRPRPRPLFCPRP | -0.517 |
| RRIRIRPPRLPRPRPRPLFKPRP | -0.773 |
| RRIRIRPPRLPRPRPRPLFRPRP | -0.429 |
| RRIRIRPPRLPRPRPRPLFVPRP | -0.642 |
| RRIRIRPPRLPRPRPRPLIFPRP | -0.562 |
| RRIRIRPPRLPRPRPRPLKDPRP | -0.0958 |
| RRIRIRPPRLPRPRPRPLKMPRP | -0.245 |
| RRIRIRPPRLPRPRPRPLLLPRP | -0.597 |
| RRIRIRPPRLPRPRPRPLMVPRP | -0.942 |
| RRIRIRPPRLPRPRPRPLNGPRP | -0.0474 |
| RRIRIRPPRLPRPRPRPLPSPRP | -0.0327 |
| RRIRIRPPRLPRPRPRPLSTPRP | -0.599 |
| RRIRIRPPRLPRPRPRPLTHPRP | -0.358 |
| RRIRIRPPRLPRPRPRPLTLPRP | -0.22 |
| RRIRIRPPRLPRPRPRPLTWPRP | -0.585 |
| RRIRIRPPRLPRPRPRPLVKPRP | -0.0899 |

| Sequence | shrunken log2 fold change |
| --- | --- |
| RRIRIRPPRLPRPRPRPLVNPRP | -0.814 |
| RRIRIRPPRLPRPRPRPLWSPRP | -0.245 |
| RRIRIRPPRLPRPRPRPLYAPRP | -0.651 |
| RRIRIRPPRLPRPRPRPLYGPRP | -0.702 |
| RRIRIRPPRLPRPRPRPLYIPRP | -0.695 |
| RRIRIRPPRLPRPRPRPLYLPRP | -1.08 |
| RRIRIRPPRLPRPRPRPLYNPRP | -0.522 |
| RRIRIRPPRLPRPRPRPMARPRP | -0.153 |
| RRIRIRPPRLPRPRPRPMCIPRP | -0.232 |
| RRIRIRPPRLPRPRPRPMCVPRP | -0.209 |
| RRIRIRPPRLPRPRPRPMDLPRP | -1.16 |
| RRIRIRPPRLPRPRPRPMFHPRP | -0.517 |
| RRIRIRPPRLPRPRPRPMFWPRP | -0.128 |
| RRIRIRPPRLPRPRPRPMGRPRP | 0.126 |
| RRIRIRPPRLPRPRPRPMGVPRP | -0.0148 |
| RRIRIRPPRLPRPRPRPMGWPRP | 0.237 |
| RRIRIRPPRLPRPRPRPMHEPRP | -0.0221 |
| RRIRIRPPRLPRPRPRPMHGPRP | -0.216 |
| RRIRIRPPRLPRPRPRPMIVPRP | -0.0322 |
| RRIRIRPPRLPRPRPRPMLGPRP | -0.146 |
| RRIRIRPPRLPRPRPRPMMFPRP | -0.0225 |
| RRIRIRPPRLPRPRPRPMMPPRP | -0.238 |
| RRIRIRPPRLPRPRPRPMNNPRP | -0.465 |
| RRIRIRPPRLPRPRPRPMQLPRP | 3.42 |
| RRIRIRPPRLPRPRPRPMRGPRP | 1.32 |
